# Experimental data from article PMC5962103, “SHOC1 is a ERCC4-(HhH)2-like protein, integral to the formation of crossover recombination intermediates during mammalian meiosis”.
# B1: single-stranded DNA (#1) (ssDNA)
# DNA: ACGCTGCCGAATTCTACCAGTGCCTTGCTAGGACATCTTTGCCCACCTGCAGGTTCACCC
# B2: D-loop (#1, #6, #7) (structured_DNA)
# DNA 1: B1 DNA
# DNA 2: GGGTGAACCTGCAGGTGGGCAGGAAGGCAAAATGCCGCAACTGGTAGAATTCGGCAGCGT
# DNA 3: TTGCGGCATTTTGCCTTCCTCGGCCAGTGAATTCGAGCTC
# Target: SHOC1 570-1111 (Homo sapiens, UniProt Q5VXU9 570-1111)
# Sequence (Q5VXU9 570-1111): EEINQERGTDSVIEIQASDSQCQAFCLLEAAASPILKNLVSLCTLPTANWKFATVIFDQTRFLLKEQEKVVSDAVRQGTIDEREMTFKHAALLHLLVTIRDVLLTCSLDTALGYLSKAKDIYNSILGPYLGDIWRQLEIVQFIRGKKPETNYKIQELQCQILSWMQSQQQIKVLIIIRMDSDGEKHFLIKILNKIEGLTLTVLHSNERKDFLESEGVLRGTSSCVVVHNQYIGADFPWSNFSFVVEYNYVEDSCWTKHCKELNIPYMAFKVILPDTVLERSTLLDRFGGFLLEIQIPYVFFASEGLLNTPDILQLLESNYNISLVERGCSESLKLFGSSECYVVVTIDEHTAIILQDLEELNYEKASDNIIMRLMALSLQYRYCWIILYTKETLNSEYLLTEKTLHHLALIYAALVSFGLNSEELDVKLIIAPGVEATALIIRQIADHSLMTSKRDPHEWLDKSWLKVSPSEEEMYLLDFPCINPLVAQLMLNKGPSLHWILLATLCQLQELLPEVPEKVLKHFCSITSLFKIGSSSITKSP
# Assay: EMSA; 2 mM Mg2+; 20 mM Tris-HCl pH 7.4, 1 mM DTT, 2 mM MgCl2, 100 mM NaCl, 10 uM 32P-DNA (so in the source), 20 ul, 10 min at 37 C; 8% PAGE in 1x TAE
# Conditions: protein: recombinant, label: 5'-32P on #1
Binder,"binding result (single strand, 60 nt)","binding result (D-loop 1:2 2:3, invading strand 3 pairs by its 5' 20 nt, 3' 20 nt tail)"
B1,binds,–
B2,–,binds
